Reference: PMC3315321

Target: T1, RIG-I (human, UniProt O95786 1-925)
T1 sequence: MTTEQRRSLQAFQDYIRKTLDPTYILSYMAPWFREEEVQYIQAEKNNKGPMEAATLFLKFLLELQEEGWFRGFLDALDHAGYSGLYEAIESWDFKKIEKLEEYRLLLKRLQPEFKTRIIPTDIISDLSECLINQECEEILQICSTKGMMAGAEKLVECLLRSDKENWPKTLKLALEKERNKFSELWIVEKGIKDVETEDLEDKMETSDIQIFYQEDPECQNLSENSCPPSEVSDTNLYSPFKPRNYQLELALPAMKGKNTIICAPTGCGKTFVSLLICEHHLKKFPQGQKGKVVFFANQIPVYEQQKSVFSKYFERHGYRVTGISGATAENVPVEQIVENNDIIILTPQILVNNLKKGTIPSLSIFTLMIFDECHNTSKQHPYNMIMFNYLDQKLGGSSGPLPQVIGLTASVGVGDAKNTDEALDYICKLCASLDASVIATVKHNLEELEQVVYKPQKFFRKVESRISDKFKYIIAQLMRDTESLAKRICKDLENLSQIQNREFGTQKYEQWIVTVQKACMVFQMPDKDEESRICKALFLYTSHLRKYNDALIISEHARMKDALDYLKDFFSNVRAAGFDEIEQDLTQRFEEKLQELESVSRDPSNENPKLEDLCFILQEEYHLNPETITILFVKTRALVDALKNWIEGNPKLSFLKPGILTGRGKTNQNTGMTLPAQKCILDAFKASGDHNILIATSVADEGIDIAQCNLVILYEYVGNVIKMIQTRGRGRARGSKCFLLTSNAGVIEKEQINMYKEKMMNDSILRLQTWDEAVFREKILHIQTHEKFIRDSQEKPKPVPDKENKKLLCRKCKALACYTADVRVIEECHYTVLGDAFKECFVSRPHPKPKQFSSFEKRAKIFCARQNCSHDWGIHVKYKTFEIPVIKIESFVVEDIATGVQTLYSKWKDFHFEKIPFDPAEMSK
Experiment: filter binding

B1: CL9 (AP-treated) (XNA)
RNA: GGGAGAGCGGAAGCGUGCUGGGCCACCAUCCGUAACUAGCUAAUACUUGUUAUCUUUUUAUUUUCAUAACCCAGAGGUCGAUGGAUCCCCCC
modifications: 2'-F U and 2'-F C (all)
  Kd: 37.2 nM
